The nature of data set [1]: Matrigel Transwell invasion, MDA-MB-231 and BT-549 rescue lines. As to conditions: glycan lost; control: SGK196-WT re-expressed in shSGK196 cells.
A short description of data set [2]: protein stability in MDA-MB-231 and BT-549 (Fig. S2C). As to conditions: glycan lost; control: SGK196-WT.
Data set [3] can be described thus: anti-HA immunofluorescence, MDA-MB-231 and BT-549. The settings on record: glycan lost; control: SGK196-WT.
Data set [4] can be described thus: Transwell migration, MDA-MB-231 and BT-549 rescue lines. The settings on record: glycan lost; control: SGK196-WT re-expressed in shSGK196 cells.

B1: SGK196: SGK196-4NQ (protein)
parent chain: MEKQPQNSRRGLAPREVPPAVGLLLIMALMNTLLYLCLDHFFIAPRQSTVDPTHCPYGHFRIGQMKNCSPWLSCEELRTEVRQLKRVGEGAVKRVFLSEWKEHKVALSQLTSLEMKDDFLHGLQMLKSLQGTHVVTLLGYCEDDNTMLTEYHPLGSLSNLEETLNLSKYQNVNTWQHRLELAMDYVSIINYLHHSPVGTRVMCDSNDLPKTLSQYLLTSNFSILANDLDALPLVNHSSGMLVKCGHRELHGDFVAPEQLWPYGEDVPFHDDLMPSYDEKIDIWKIPDISSFLLGHIEGSDMVRFHLFDIHKACKSQTPSERPTAQDVLETYQKVLDTLRDAMMSQAREML
For B1, the “other: suppression of cell invasion” value in data set [1] is on record as “decreases”. Moreover, the degradation_or_half_life entry in data set [2] is listed as “no change”. Also, the localisation_or_trafficking result in data set [3] was “no change”. For the same protein, the “other: suppression of cell migration” value in data set [4] is reported as “decreases”.
